From the DeepSol protein solubility set

assay: soluble on expression in E. coli; label from the status in PepcDB or PDB records

| Sequence | soluble on expression in E. coli |
| --- | --- |
| MSLQRLLQHSSNGNLADFCAGPAYSSYSTLTGSLTMDDNRRIQMLADTVATLPRGRKQLALTRSSSLSDFSWSQRKLVTVEKQDNETFGFEIQSYRPQNQNACSSEMFTLICKIQEDSPAHCAGLQAGDVLANINGVSTEGFTYKQVVDLIRSSGNLLTIETLNGTMILKRTELEAKLQVLKQTLKQKWVEYRSLQLQEHRLLHGDAANCPSLENMDLDELSLFGPLPGPGPALVDRNRLSSESSCKSWLSSMTMDSEDGYQTCVSEDSSRGAFSRQTSTDDECFIPKEGDDFLRRSSSRRNRSISNTSSGSMSPLWEGNLSSMFGTLPRKSRKGSVRKQLLKFIPGLHRAVEEEESRF | soluble |
| MSSDAISLRAAGPGDLPGLLELYQVLNPSDPELTTQEAGAVFAAMLAQPGLTIFVATENGKPVATATLLIVPNLTRAARPYAFIENVVTLEARRGRGYGRTVVRHAIETAFGANCYKVMLLTGRHDPAVHAFYESCGFVQNKTGFQIRQD | soluble |
| MGSDKIHHHHHHMKYLPLYPILARYPFLRIASRVFSFNIEDELRKFLDTVEAAKRIVDKAIDGRVEYDRFTDESEFFCLGCEENCYDCQKRGTLEGCDLCMGCFENCSLYYPREAVERFYTNAKLSLLTYIASRMIVSAMEDWVRMRYAVNEASYYSRLLREDVEESGKEPIVRLVAIDLGAKLKGWKMHVSTFVRVSARIKDDKWRLVNRKLRNGWVETTKAEVLRGLEELLRMKLFEKVPVSEAVSEAVRELSRKAKRESEKFAMDLGEVDLNCLPPCMREILSELQRGMNIPHTARFAITSFLLNIGMTVDEIIALFKSAPDFDDEKTRYQVEHIAGERGKGAEYTSPSCDTMRTYSNCVADCRVSHPLIYYKKCKSKS | not soluble |
| MGSSHHHHHHSSGRENLYFQGMHYQPKQDLLNDRIILVTGASDGIGREAAMTYARYGATVILLGRNEEKLRQVASHINEETGRQPQWFILDLLTCTSENCQQLAQRIVVNYPRLDGVLHNAGLLGDVCPMSEQNPQVWQDVMQINVNATFMLTQALLPLLLKSDAGSLVFTSSSVGRQGRANWGAYAASKFATEGMMQVLADEYQQRLRVNCINPGGTRTAMRASAFPTEDPQKLKTPADIMPLYLWLMGDDSRRKTGMTFDAQPGRKPGISQ | soluble |
| SSVSGLKAELKFLASIFDKNHERFRIVSWKLDELHCQFLVPQQGSPHSLPPPLTLHCNITESYPSSSPIWFVDSEDPNLTSVLERLEDTKNNNLLRQQLKWLICELCSLYNLPKHLDVEMLDQPLPTGQNGTTEEVTSEEEEEEEEMAEDIEDLDHYEMKEEEPISGKKSEDEGIEKENLAILEKIRKTQRQDHLNGAVSGSVQASDRLMKELRDIYRSQSYKTGIYSVELINDSLYDWHVKLQKVDPDSPLHSDLQILKEKEGIEYILLNFSFKDNFPFDPPFVRVVLPVLSGGYVLGGGALCMELLTKQGWSSAYSIESVIMQINATLVKGKARVQFGANKNQYNLARAQQSYNSIVQIHEKNGWYTPPKEDG | not soluble |
| MSLSTARLPENAERNRFQDVLPYDDARVELVPTKENNTGYINASHIKVSVSGIEWDYIATQGPLQNTCQDFWQMVWEQGIAIIAMVTAEEEGGREKSFRYWPRLGSRHNTVTYGRFKITTRFRTDSGCYATTGLKMKHLLTGQERTVWHLQYTDWPEHGCPEDLKGFLSYLEEIQSVRRHTNSTSDPQSPNPPLLVHCSAGVGRTGVVILSEIMIACLEHNEVLDIPRVLDMLRQQRMMLVQTLCQYTFVYRVLIQFLKSSRLIEGHHHHHH | not soluble |
| MGSDKIHHHHHHMTDTTIPNPLAPVKGANTTFWMYNSEGDPFASPLSDNNWLRLANVKDLQPGELTADAEDNNYLDDENADWKSTTQGQKSAGDTSVTLAWKPGEDVQKKLIQLFTTGQKRGFRIKYPNGTVDVFRGWVSSLGKTVQSKDEIARTVKITSVGRPYMAEEDAPEVVSVTGLTVEPTNATVKVGATTAVTFTVKPDNVTDKSLRIATSDPTTATVTQAENIATVKGVKAGTVKIIGMTTDGNFTAIADITVQA | not soluble |
| MLLVSVISCLLISVLAKDAVTPRVGSQCTKNQVVRKLTVYEDGALEAECGPVPCGEVGKRCIDDQTSCRAETDVFSGMRWAPNGESILLRCCTMHAKNKIYVGTDVVAAGSFYEGGEVAEKDLYGDKGGAEYDFVANARTEQGGVRVWVYRMICAKGEKPVDFDPITTTSAPRVIKTTPAPTTTPTVEEEAEEAEQLEEDQPNDNEAEIVESNDEEEVVEEETEEEEEVTTTPAPKPFNPLRYRPPHFPRQSTGIRRA | not soluble |
| MKKVNLAVVGATGMVGRTFIKVLEERNLPIDNIYFFSSSRSAGSTVTFNNKEYVVEELTETSFDRGIDIALFSAGASVSEKFAPIAASKGCVVVDNSSCWRMNEKVPLVVPEVNPQDISCHQGIIANPNCSTIQAVVVLKPLHDKYKIKRIVYSTYQAVSGAGHNGYMDLENGLKGEPPKKFPHPIAGNCLPHIDSFLPNGYTKEEMKMVNETRKILGDYSIRITATTVRVPVFNGHSESINVEFEKQFDLEELKEVLRNAPGVVVQDDVANNVYPMPIYASGRDETFVGRIRRDESVESGVNLWVVADNIRKGAATNAVQIAEELIKMWNK | soluble |
| MVLASSSAFALKDDVNQPINIVSDNQSLDMEKSVVTFTDNVVITQGSIVIKANKVVITRPAEKSGKKETVEAFGTPVTFHQQLDNGKPVDGKANKVHYDLGNEFLTLTNNAELKQLDSKINGSVITYDVKKQQLKANGNGKSRVTTVLIPSQLQQAKGK | not soluble |
| PTSSTTAALVMGDALAVALLEARGFTAEDFALSHPGGALGRKLLLRVNDIMHTGDEIPHVGLQATLRDALLEITRKNLGMTAICDDDMNIIGIFTDGDLRRVFDTGVDMRDASIADVMTRGGIRIRPGTLAVDALNLMQSRHITCVLVADGDHLLGVVHMHDLLRA | soluble |
| MSLKTLMAVGLAAVMSIPFAANAADYVIDTKGAHASINFKVNHLGYSYIKGRFNKFDGEFSYDPANIAASSVVVNVDTRSLDSNHAERDKHIRSADFIDASKYSTATFKSTEVVDKGNGQLEVKGDLTLHGQTKPIVINAEFIGAGQDPWGGQRSGFAGTTRLELKDFGIQVMGASSYVDMELHVEGVQKEGGSHHHHHH | soluble |
| GMKQSKKIIITCAVTGSIHTPTMSPYLPITPEEIVKEGVAAAEAGAAMLHLHARDPLNGRPSQDPDLFMRFLPQLKERTDAILNITTGGGLGMSLDERLAPARAARPEVASMNMGSLNFNISQAAAKFDTFKFDWERPYLAGTRDFILSNTFSQIERGMTELGASGTRFEFECYDVGHLYNLAHFVDRKLVEPPFFLQCVFGILGGIGADPENLLHMRTIADRLFGQDYYLSVLAAGRHQMPFVTMSAILGGNVRVGLEDSLYSGKGQLATSNAEQVRKIRRIIEELSLDIATPDEARAMLKTKGANETSF | soluble |
| MAHHHHHHMATIGMFNEEGENVDLYIPRKCHATTTLIEAHDHAAVQISIANVGPNGVINGTTTTLCIAGYLRSQGESDHAINHITIDRGIMRIKTGKPKRASKSKSKKPAAKGAAAGAAAQKGARPPAQKGARPPAQKGARPPAQKGARPPAQKGARPPAQKGAAPARKNRA | soluble |
| MSSQKVFGITGPVSTVGATAAENKLNDSLIQELKKEGSFETEQETANRVQVLKILQELAQRFVYEVSKKKNMSDGMARDAGGKIFTYGSYRLGVHGPGSDIDTLVVVPKHVTREDFFTVFDSLLRERKELDEIAPVPDAFVPIIKIKFSGISIDLICARLDQPQVPLSLTLSDKNLLRNLDEKDLRALNGTRVTDEILELVPKPNVFRIALRAIKLWAQRRAVYANIFGFPGGVAWAMLVARICQLYPNACSAVILNRFFIILSEWNWPQPVILKPIEDGPLQVRVWNPKIYAQDRSHRMPVITPAYPSMCATHNITESTKKVILQEFVRGVQITNDIFSNKKSWANLFEKNDFFFRYKFYLEITAYTRGSDEQHLKWSGLVESKVRLLVMKLEVLAGIKIAHPFTKPFESSYCCPTEDDYEMIQDKYGSHKTETALNALKLVTDENKEEESIKDAPKAYLSTMYIGLDFNIENKKEKVDIHIPCTEFVNLCRSFNEDYGDHKVFNLALRFVKGYDLPDEVFDENEKRPSKKSKRKNLLEHHHHHH | soluble |
| MAHHHHHHMYTRDVSDRISGISAADLAQRLVEVSARNTARDGALSPSVCQRPLPHCVSALLWDAKCAGAAPPRTALLRGDVVDMTSSVSDATLSCVALSDDVRFRFARSRHRRLTGILSSTAAPLPPRMCRVDVTHFYWMDECAPGLTYDDQSVLSTVLQKRIVQWAVSAFARNPLLRNISLQALEAVFPALLAFSPREREELLKHAAELLGQGTLIWYGQAMIKQFHESAASLALSLLTSSEERCSAALLFALATAQEVMGARRDDAAQALRFLLEVYGVRGVALSPALTTAALLVSRATVPLCTRRCLGAGSRQHHLLQPYLFPLSCAHVETLPWIPHNTHTSSPEHLRELVRRAREAAAAVLATAAPCTATTAQKRHAHEDDVNAFFSANHALEIHRDTLVTHASGDVPSSLPALKAADSGAAARSRLLEAAPKWWEQEAKASNSDTAREETELKLHVKAAAAELREPHGSDHALLAVIHRTRKRQRNREQPTAQTVEAALEGAAIRLKRRAFLQLVDIFALNAHTEDRDGKARQYLEQHHVAEAQIRDFTTLLSSTRKT | not soluble |
| MSLKHYDLIIIGTGSGNSIPGPEFDDKSIAIVEKGAFGGTCLNVGCIPTKMYVYAADIAQEIQESARLGIDATVNSVDWPSIVSRVFDKRIDLIAQGGEAYRRGPETPNIDVYDMHASFVDSKTISTGIAGQEQLISGTDIVIATGSRPYIPEAIAESGARYYTNEDIMRLAQQPESLVIVGGGFIALEFAHVFEALGTKVTILNRSDVLLREADADISAKILELSKKRFDVRLSTAVTAVHNKADGGVKISTDTGDDIEADILLVATGRTPNGNQMNLDAAGIEMNGRSIKVDEFGRTSVEGVWALGDVSSPYKLKHVANAEMRAIKHNLANPNDLQKMPHDFVPSAVFTNPQISQVGMTEQEAREAGLDITVKIQNYSDVAYGWAMEDKDGFVKLIADKDTGKLVGAHIIGAQASTLIQQLITVMAFGIDAREAATKQYWIHPALPEVIENALLGLEFEGHHHHHH | soluble |
| MHSVPSTGFPQSEFSGPFWTGRGVACARPNRYVWTARPSDQSSRRMSTSFSRRLRRLQSQKETALCVGLDPVPARFPPSLQDGRLRTDAVRAFCTTIVEATAPYACAFKPNFAFFEALGPAGLTVLDQVVTTIPDDCLVLGDAKRGDIGHSARHYAASIYEELGLDACTVSPYLGRDSVMPFLEHEGTCTFVLARTSNDGAADLQEACTCDGTPLYRHVARRVQAWNADAPGGAGLVVGATAPAALQDLRSLCPSLPFLVPGVGAQGGDAAAVMDAAATDEGPVLVNSSRSILYASEGPNYANAAADAARALRDALNGGASSSRGAPSPPALEHHHHHH | soluble |
| MKTIGLLGGMSWESTIPYYRLINEGIKQQLGGLHSASLLLHSVDFHDIEVCQRRDEWDKAGDILAQAAHGLQQAGAEGIVLCTNTMHKIAHVIESRCSLPFLHIADATGRAIARQGLHRVALLGTRYTMEQDFYRGRLEQQFAIETIVPEADDRARINQVIFDELCQGTFTDASRHYYLQVIEQLAAQGAQGVIFGCTEIGLLVPQTQSALPVFDTTAIHAADAVSFMLSSSAPE | soluble |
| MGSDKIHHHHHHMKEAGILFEELVSIMEKLRSPEGCEWDRKQTHESLKPYLIEECYELIEAIDEKNDDMMKEELGDVLLQVVFHAQIARERGAFTIEDVIRTLNEKLIRRHPHVFGDSPGYSYKQWEDIKAQEKGKKKSSRIGEINPLVPALSMARRIQENASQVGFDWKDPEGVYEKIEEELKELKEAKDPRELEEEFGDLLFSIVNLSRFLNVDPESALRKATRKFVERFKKMEELIEKDGLVLEELPIEKLDEYWEKAKGGDET | not soluble |
